Test results published in paper PMC13343191, “APE1 binds and processes abasic sites present in i-motif DNA and cooperates with PCBP1 in maintenance of telomeric stability”.

Tests used:
APE1 NΔ33 = APE1 NΔ33 (UniProt P27695 34-318, del1-33); experiment: southwestern blot; switchSENSE: MES pH 5.5 (APE1) or 6.5 (iMab); UV-crosslinking: 50 mM Tris-acetate pH 5.5, 50 mM KCl, 1 mM DTT, 0.8% glycerol, 0.4 mM EDTA, 4°C; NMR: 50 mM NaCl, 10 mM MES pH 5.5, 1 mM DTT, 25°C; SMADNE: 25 mM MES pH 5.5, 150 mM NaCl, 0.1 mg/ml BSA, 1 mM DTT, 1 mM Trolox; conditions: protein: recombinant; tags: GST (Factor Xa cleavable, pGEX-3X) or His/GFP (pTAC-MAT); label: 5' IRDye800 (SWB, UV-crosslinking); i-motif, intramolecular
Chain of APE1 NΔ33 (P27695 34-318, stated change not applied): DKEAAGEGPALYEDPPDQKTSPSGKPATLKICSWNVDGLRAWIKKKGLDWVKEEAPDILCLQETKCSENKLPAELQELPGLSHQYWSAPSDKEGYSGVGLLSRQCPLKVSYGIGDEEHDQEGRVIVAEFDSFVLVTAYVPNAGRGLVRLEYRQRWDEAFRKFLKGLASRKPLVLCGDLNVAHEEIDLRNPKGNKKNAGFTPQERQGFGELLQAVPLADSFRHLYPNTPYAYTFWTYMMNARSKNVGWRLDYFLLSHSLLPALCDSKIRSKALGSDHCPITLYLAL

APE1 WT = APE1 WT (UniProt P27695 1-318); experiment: as above; conditions: protein: recombinant; tags: GST (Factor Xa cleavable, pGEX-3X) or His/GFP (pTAC-MAT); label: 5' IRDye800 (SWB, UV-crosslinking); i-motif, intramolecular
Chain of APE1 WT (P27695 whole entry): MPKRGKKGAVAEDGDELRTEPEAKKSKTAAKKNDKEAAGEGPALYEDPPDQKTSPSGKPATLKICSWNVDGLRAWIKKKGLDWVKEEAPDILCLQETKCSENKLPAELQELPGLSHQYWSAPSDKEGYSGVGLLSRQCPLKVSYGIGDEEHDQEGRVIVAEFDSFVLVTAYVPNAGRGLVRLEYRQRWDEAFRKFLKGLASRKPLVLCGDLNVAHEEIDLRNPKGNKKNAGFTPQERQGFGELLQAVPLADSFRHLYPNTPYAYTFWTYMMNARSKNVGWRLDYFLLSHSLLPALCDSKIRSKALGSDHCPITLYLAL

B1: C-NAT (structured_DNA)
DNA: TAACCCTAACCCTAACCCTAACCCTAA
Question: What does the source list for B1?
Answer: binding result (APE1 NΔ33): binds; binding result (APE1 WT): binds
